Experimental data: patent US20230117205A1, “B7-H4 ANTIBODY-DRUG CONJUGATES FOR THE TREATMENT OF CANCER” (SEAGEN INC., priority 2021, published 2023)

Key:
[1] = biological target: T1, FcγRI (Homo sapiens, UniProt P12314); assay: FcγR Jurkat NFAT-luciferase reporter cell assay with SKBR3 target cells; assay type: cell-based
T1 construct: expressed in transfected cells; host or cells: Jurkat (NFAT-luciferase reporter)
Experimental: (§1) Cellular FcγR signaling was measured in a cell-based assay that uses SKBR3 target cells that endogenously express B7-H4 and Jurkat effector cells engineered to express FcγRI, RIIa, or RIII and an NFAT (nuclear factor of activated T cells) driven luciferase reporter gene. […] The luciferase signal is proportional to the degree of FcγR-induced effector cell activation and serves as a surrogate for ADCC (FcγRIII) or ADCP (FcγRI/IIa).
(§2) Specifically, Jurkat effector cells engineered to express FcγRI, RIIa, or RIII and an NFAT (nuclear factor of activated T cells) driven luciferase reporter gene were thawed and cultured in NFAT reporter cell medium (RPMI 1640 Medium (Gibco #11875-093) supplemented with 4% HyClone™ Fetal Bovine Serum, Super Low IgG (Gibco #A33819-01), 1× Penicillin-Streptomycin (Gibco #15140-122), 1×MEM nonessential amino acids (Gibco #11140-050), 1× L-Glutamine (Gibco #25030-081), 1× Sodium pyruvate (Gibco #11360-070), Hygromycin (Invitrogen #10687), Antibiotic G-418 sulfate solution (Promega #V8091), HEPES (Gibco #15630)). The Jurkat FcγR signaling assay was then performed as follows:
(§3) The day before the assay, target SKBR3 cells were lifted using Versene (Gibco #15040-066), washed twice with PBS, and plated at 1.2×10^4 cells per well in 90 μL RPMI 1640 containing 10% low IgG FBS and penicillin/streptomycin in black-walled 96-well plates (Corning #3603). The following day, NFAT assay buffer was prepared by adding 4 mL low IgG serum to 100 mL of RPMI 1640, mixed, and warmed to 37° C. NFAT assay buffer was used to resuspend all cells and antibody dilutions. Stock dilution plates (10×) of each antibody were prepared at 100, 30, 10, 3, 1, 0.3, 0.1, 0.03, 0.01, and 0.003 μg/mL. […] Effector cells were counted, washed twice in PBS, and resuspended at 1×10^6 cells/mL in NFAT assay buffer. […] Luminescence was measured for all samples with the Envision 96 CTG protocol (Envision plate reader, PerkinElmer) after mixing on a shaker (covered with foil) for at least 5 minutes. Background (no cells) signal was subtracted from the raw luminescence signal prior to graphing.

[2] = biological target: T2, FcγRIII (Homo sapiens, UniProt P08637); assay: as above; assay type: cell-based
T2 construct: expressed in transfected cells; host or cells: Jurkat (NFAT-luciferase reporter)
Experimental: as §1, §2, §3

[3] = biological target: T3, FcγRIIa (Homo sapiens, UniProt P12318); assay: as above; assay type: cell-based
T3 construct: expressed in transfected cells; host or cells: Jurkat (NFAT-luciferase reporter)
T3 sequence (P12318 34-317): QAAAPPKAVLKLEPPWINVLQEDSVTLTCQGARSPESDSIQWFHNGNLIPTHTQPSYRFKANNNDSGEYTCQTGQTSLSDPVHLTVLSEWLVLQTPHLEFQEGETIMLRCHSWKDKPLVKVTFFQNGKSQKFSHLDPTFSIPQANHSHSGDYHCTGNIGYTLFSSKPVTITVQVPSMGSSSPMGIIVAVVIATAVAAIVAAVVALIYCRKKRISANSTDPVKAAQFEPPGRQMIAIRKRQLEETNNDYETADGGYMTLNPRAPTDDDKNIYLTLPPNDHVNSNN
Experimental: as §1, §2, §3

[4] = tested on: MDA-MB-468; assay: In vitro cytotoxicity, 96-hour 3D spheroid, CellTiter-Glo; assay type: cell-based, human
Experimental: (§4) The cytotoxicity was evaluated when cells were grown in 3D spheroid (round bottom, ultra-low attachment plates) conditions.
(§5) Cancer cell lines expressing B7-H4 (SKBR3, MX-1, and MDA-MB-468) as well as a non-B7-H4-expressing cell line (MDA-MB-231) were thawed from cryovials stored at […] into complete growth media and allowed to grow and recover from thaw at 37° C. and 5% CO2 until cell viability determined by Vi-CELL XR (Beckman Coulter, Indianapolis, Ind.) were above 90%. Cells were then counted and plated at 2000, 2200, 2200, and 2200 cells/well respectively. Cells were plated in 150 μL complete growth media in round bottom, black walled, ultra-low attachment, 96-well plates (Corning 4520). Cell plates were placed at 37° C. and 5% CO2 overnight to allow cells to adhere. ADCs were thawed and 4×8-point serial dilutions were prepared (final dose range 1000-0.061 ng/mL) in RPMI 1640+20% FBS. Fifty μL of each dilution were then added to each cell plate in triplicate. Cells were then left to incubate at 37° C. and 5% CO2 for 96 hours. Cell plates were then removed from the incubator and allowed to cool to room temperature for 30 minutes. CellTiter-Glo® luminescent assay (Promega Corporation, Madison, Wis.) was prepared according to Promega's protocol. One hundred uL CellTiter-Glo® were added to assay plates using a Formulatrix Tempest liquid handler (Formulatrix, Inc.) and plates were heat sealed using an ALPS300 automated microplate heat sealer (Thermo Scientific) and protected from light for 30 minutes at room temperature. The luminescence of each plate was then determined using an EnVision Multilabel plate reader (Perkin Elmer, Waltham, Mass.). […] One hundred uL of lysed spheroid suspension was then transferred to a black walled, flat bottom 96 well plate and read on the EnVision Multilabel plate reader (Perkin Elmer, Waltham, Mass.). Raw data were then analyzed in Graphpad Prism (San Diego, Calif.) using a non-linear, 4-parameter curve fit model (Y=Bottom+[Top-Bottom]/[1+10^[[Log EC50-X]×HillSlope]]). […]

[5] = tested on: MDA-MB-231; assay: as above; assay type: cell-based, human; details: MDA-MB-231 (non-B7-H4-expressing)
Experimental: as §4, §5

[6] = tested on: SKBR3; assay: as above; assay type: cell-based, human
Experimental: as §4, §5

T1 sequence (P12314 16-374): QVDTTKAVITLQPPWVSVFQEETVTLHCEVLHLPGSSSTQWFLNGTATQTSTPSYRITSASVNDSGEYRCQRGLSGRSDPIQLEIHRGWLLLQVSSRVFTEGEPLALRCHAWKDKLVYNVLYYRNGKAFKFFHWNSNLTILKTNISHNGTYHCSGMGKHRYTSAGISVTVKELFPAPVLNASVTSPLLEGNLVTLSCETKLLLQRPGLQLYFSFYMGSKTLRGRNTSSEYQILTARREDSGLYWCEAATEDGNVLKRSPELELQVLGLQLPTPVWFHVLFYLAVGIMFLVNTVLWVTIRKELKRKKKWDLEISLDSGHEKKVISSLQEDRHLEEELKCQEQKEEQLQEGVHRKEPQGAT
T2 sequence (P08637 17-254): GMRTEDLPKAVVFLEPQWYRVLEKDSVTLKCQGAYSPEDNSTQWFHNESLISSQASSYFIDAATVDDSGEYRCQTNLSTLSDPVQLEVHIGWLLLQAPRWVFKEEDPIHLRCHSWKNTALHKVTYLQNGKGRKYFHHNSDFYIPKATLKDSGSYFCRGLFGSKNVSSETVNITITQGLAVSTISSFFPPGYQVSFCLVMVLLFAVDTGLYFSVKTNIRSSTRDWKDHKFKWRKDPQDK

For “SGN-B7H4V: ADC of fully human IgG1 anti-B7-H4 mAb conjugated to monomethyl auristatin E (MMAE) via a protease-cleavable valine-citrulline linker (vedotin)”, the FcγRI-mediated luciferase activity [1] was “dose-dependent increase”, the FcγRIII-mediated luciferase activity [2] was “dose-dependent increase” and the FcγRIIa-mediated luciferase activity [3] was “not FcγRIIa-mediated luciferase activity”. The “×50” value [4] was 105 ng/mL, the “×50” value [5] was over 1000 ng/mL and the “×50” value [6] was 4 ng/mL.
